The results in this text go back to doi:10.1101/2023.02.03.526950.

Test [1] concerns the target PXN/paxillin, exogenously expressed in HEK293T cells (human) (UniProt P49023). Briefly: cross-linking.
Test [2] addresses recombinant PXN WT (human) (UniProt P49023). Briefly: SEC-MALS. (In gel filtration, larger molecules generally elute earlier.)

As for “PXN/paxillin, exogenously expressed in HEK293T cells (from UniProt P49023-2 1-557) (natural protein)”, the stoichiometry N (in general, the number of molecules, sites or subunits per partner or assembly) in test [1] turned out to be 2.
With “recombinant PXN WT (from UniProt P49023-2 1-557) (natural protein)”, in test [2], the stoichiometry N worked out at 2.
